Legend:
[1] = target: mEGFP (free), expressed in U-2 OS cells; assay: FRET or BRET; in living U-2 OS cells co-transfected with both proteins; only cells with about 1:1 expression; epifluorescence microscope, infrared laser temperature ramp 19-46°C; average of 15-30 cells
[2] = target: ePGK2, expressed in U-2 OS cells (yeast) (UniProt P00560); assay: as above
[3] = target: ePGK3, expressed in U-2 OS cells (yeast) (UniProt P00560); assay: as above
[4] = target: FRET-PGK1 (PGK1 labeled with mEGFP at the N-terminus and mCherry at the C-terminus) (yeast) (UniProt P00560)

With “mCherry (free), expressed in U-2 OS cells” as the substance, how does the E FRET change [1] read?
The E FRET change was 2%.

What does the source list for “mHsp70 (Hsp70 labeled by mCherry at the C-terminus), expressed in U-2 OS cells (from UniProt P0DMV8 1-641) (natural protein)”?
T0 (binding temperature midpoint) [2]: 39.1 °C; overall E FRET change [2]: 8%; T0 (binding temperature midpoint) [3]: 37.1 °C; overall E FRET change [3]: 8%

“Hsp70 (as used in the stopped flow PGK refolding assay) (from UniProt P0DMV8 1-641) (natural protein)” was tested. Which folding efficiency of GuHCl-denatured efPGK1 in stopped flow refolding (intramolecular FRET) with 100 μM Hsp70 and 22.5 μM Hsp40, 2 mM ATP; 47% without Hsp70 [4] did it give?
The folding efficiency of GuHCl-denatured efPGK1 in stopped flow refolding (intramolecular FRET) with 100 μM Hsp70 and 22.5 μM Hsp40, 2 mM ATP; 47% without Hsp70 was 57%.

Source: article PMC6762143
